Data as given in patent US20020177126A1 (published 2002).
Residue numbers refer to the chain shown, from its start.

B1: A12a6 (monoclonal antibody) (antibody, V domains shown)
VH: QVTLRESGPALVKPTQTLTLTCTFSGFSLSTAGMSVGWIRQPPGKALEWLADIWWDGKKDYNPSLKDRLTISKDTSKNQVVLKVTNMDPADTATYYCARDMIFNFYFDVWGQGTTVTVSS
VL: DIQMTQSPSTLSASVGDRVTITCSASSRVGYMHWYQQKPGKAPKLLIYDTFKLSSGVPSRFSGSGSGTEFTLTISSLQPDDFATYYCFQGSGYPFTFGGGTKVEIK
B2: P11d4 (monoclonal antibody) (antibody, V domains shown)
VH: B1 VH with A32P, D60H, F105W
VL: B1 VL with A25P, F51M, K52R, S54A
B3: P12f4 (monoclonal antibody) (antibody, V domains shown)
VH: B1 VH with A32P, D60H
VL: B1 VL with A25L, F51R, K52G, S54P
B4: P12f2 (monoclonal antibody) (antibody, V domains shown)
VH: B1 VH with A32P, G57D, D60H, Q112A
VL: B1 VL with A25L, K52Y
notes: also called Pf12; P1212
B5: A13c4 (monoclonal antibody) (antibody, V domains shown)
VH: B1 VH with D60S
VL: B1 VL with A25L, F51M, K52Y, L53Q
B6: 1X-493L1FR (Fab) (Fab, V domains shown)
VH: B1 VH with A32S, G57D, D67S, D100S, F103T, F105W, Q112A
VL: B1 VL with R28S, F51S, S54A, V103L
B7: A1e9 (monoclonal antibody) (antibody, V domains shown)
VH: B1 VH with D60H, F105W
VL: B1 VL with A25L
B8: A8c7 (monoclonal antibody) (antibody, V domains shown)
VH: B1 VH with G57D, D60S, F105W
VL: B1 VL with A25P, F51R, K52Y, L53Q, V103L

What follows are binders tested against F protein of wild type RSV A/Long (respiratory syncytial virus, strain …, UniProt P12568 26-574) (assay: cell-based or functional assay).
Sequence of F protein of wild type RSV A/Long (P12568 26-574): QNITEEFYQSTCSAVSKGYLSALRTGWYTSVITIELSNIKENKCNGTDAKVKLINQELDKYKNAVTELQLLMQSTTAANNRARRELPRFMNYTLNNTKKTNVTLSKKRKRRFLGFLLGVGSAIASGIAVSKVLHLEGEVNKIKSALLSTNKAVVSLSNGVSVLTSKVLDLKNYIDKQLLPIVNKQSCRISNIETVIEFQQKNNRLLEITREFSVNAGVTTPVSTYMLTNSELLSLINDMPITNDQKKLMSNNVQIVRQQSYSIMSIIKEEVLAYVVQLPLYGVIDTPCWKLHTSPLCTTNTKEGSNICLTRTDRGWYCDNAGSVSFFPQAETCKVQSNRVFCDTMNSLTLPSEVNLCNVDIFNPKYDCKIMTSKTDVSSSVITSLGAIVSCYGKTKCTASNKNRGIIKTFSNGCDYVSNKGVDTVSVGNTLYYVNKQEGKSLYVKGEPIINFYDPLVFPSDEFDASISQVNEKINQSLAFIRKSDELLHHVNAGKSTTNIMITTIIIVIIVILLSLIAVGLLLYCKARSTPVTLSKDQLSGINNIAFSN

| Binder | Fold Difference (Control IC50) [fold] | Fold Difference (Curve IC50) [fold] | Mean IC50 (Control), RSV microneutralization [mg/L] | Mean IC50 (Curve), RSV microneutralization [mg/L] |
| --- | --- | --- | --- | --- |
| B1 | 15 | 13 | 0.0354 | 0.0357 |
| B2 | 19 | 21 | 0.0289 | 0.0217 |
| B3 | 23 | 19 | 0.0235 | 0.0242 |
| B4 | 24 | 20 | 0.0223 | 0.0231 |
| B5 | 14 | 12 | 0.0375 | 0.0376 |

The binders below were run against F protein (RSV F glycoprotein immobilised on the BIAcore sensor chip) (respiratory syncytial virus (RSV), UniProt P03420 26-524) (assay: BIAcore, immobilised F protein).
Sequence of F protein (RSV F glycoprotein immobilised on the BIAcore sensor chip) (P03420 26-524): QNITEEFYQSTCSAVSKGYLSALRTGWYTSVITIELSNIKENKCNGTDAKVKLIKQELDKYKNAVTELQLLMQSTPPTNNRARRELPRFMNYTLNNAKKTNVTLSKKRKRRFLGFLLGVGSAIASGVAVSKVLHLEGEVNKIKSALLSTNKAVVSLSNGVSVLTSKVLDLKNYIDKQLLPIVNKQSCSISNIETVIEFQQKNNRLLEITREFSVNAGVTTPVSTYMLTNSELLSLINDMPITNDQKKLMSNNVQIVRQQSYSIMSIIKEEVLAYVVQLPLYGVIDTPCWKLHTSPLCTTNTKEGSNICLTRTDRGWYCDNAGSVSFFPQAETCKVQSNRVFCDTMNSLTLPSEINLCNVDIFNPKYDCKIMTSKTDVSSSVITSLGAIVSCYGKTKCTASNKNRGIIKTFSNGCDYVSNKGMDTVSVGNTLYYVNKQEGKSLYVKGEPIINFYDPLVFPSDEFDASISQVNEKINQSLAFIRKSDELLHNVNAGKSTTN

| Binder | koff [s⁻¹] | kon [M⁻¹ s⁻¹] |
| --- | --- | --- |
| B6 | 0.00065 | 185000 |

These binders were tested against Bac-F (UniProt P03420 26-524) (assay: BIAcore, Mab vs Bac-F, 1:1).
Sequence of Bac-F (P03420 26-524): as above

| Binder | Kd [nM] | koff [s⁻¹] | kon [M⁻¹ s⁻¹] | number in parentheses after KD (fold vs SYNAGIS) [fold] |
| --- | --- | --- | --- | --- |
| B7 | 0.33 | 0.000143 | 433000 | 12 |
| B8 | 0.21 | 8.75e-05 | 417000 | 19 |
| B1 | 0.04 | 1.65e-05 | 460000 | 98 |
| B2 | 0.62 | 0.000289 | 466000 | 6 |
| B3 | 0.11 | 5.55e-05 | 495000 | 35 |
| B4 | 0.31 | 0.000128 | 407000 | 13 |
| B5 | 0.13 | 3.96e-05 | 300000 | 30 |
